Results taken from paper PMC7913688, “Human Rev1 relies on insert-2 to promote selective binding and accurate replication of stabilized G-quadruplex motifs”.
Changes are numbered by the printed parent chain.

Experiments:
Conditions in all cases: protein: recombinant, label: 5'-FAM
hRev1 330-833 Y470A = biological target: T1, hRev1 330-833 Y470A (human, UniProt Q9UBZ9 330-833, Y470A); test: fluorescence polarization; 100 mM KCl?; Fluorescence polarization: 1 nM FAM-DNA, 100 mM KCl or LiCl; DNA annealed in 50 mM HEPES pH 7.5; full buffer as in cited ref 17, temperature not stated. Footprinting: 50 mM HEPES pH 7.5, 100 mM KCl, 10 uM protein, 30 uM ssDNA, room temperature
T1 sequence: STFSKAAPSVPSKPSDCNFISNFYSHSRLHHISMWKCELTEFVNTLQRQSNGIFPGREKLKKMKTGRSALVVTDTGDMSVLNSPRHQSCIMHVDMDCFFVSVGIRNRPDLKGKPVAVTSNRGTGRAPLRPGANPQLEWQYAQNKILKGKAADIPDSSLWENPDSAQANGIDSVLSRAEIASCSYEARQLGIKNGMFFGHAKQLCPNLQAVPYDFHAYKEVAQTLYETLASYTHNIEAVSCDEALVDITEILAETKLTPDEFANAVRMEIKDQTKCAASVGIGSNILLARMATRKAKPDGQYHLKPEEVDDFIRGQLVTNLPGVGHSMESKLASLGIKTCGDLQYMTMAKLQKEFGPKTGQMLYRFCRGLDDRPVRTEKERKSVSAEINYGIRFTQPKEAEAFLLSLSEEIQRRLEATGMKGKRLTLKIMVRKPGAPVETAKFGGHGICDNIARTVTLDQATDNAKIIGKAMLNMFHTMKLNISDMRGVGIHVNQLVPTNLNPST

hRev1 full-length = biological target: T2, hRev1 full-length (human, UniProt Q9UBZ9 1-1251); test: fluorescence polarization; 100 mM KCl; Fluorescence polarization: 1 nM FAM-DNA, 100 mM KCl or LiCl; DNA annealed in 50 mM HEPES pH 7.5; full buffer as in cited ref 17, temperature not stated. Footprinting: 50 mM HEPES pH 7.5, 100 mM KCl, 10 uM protein, 30 uM ssDNA, room temperature
T2 sequence: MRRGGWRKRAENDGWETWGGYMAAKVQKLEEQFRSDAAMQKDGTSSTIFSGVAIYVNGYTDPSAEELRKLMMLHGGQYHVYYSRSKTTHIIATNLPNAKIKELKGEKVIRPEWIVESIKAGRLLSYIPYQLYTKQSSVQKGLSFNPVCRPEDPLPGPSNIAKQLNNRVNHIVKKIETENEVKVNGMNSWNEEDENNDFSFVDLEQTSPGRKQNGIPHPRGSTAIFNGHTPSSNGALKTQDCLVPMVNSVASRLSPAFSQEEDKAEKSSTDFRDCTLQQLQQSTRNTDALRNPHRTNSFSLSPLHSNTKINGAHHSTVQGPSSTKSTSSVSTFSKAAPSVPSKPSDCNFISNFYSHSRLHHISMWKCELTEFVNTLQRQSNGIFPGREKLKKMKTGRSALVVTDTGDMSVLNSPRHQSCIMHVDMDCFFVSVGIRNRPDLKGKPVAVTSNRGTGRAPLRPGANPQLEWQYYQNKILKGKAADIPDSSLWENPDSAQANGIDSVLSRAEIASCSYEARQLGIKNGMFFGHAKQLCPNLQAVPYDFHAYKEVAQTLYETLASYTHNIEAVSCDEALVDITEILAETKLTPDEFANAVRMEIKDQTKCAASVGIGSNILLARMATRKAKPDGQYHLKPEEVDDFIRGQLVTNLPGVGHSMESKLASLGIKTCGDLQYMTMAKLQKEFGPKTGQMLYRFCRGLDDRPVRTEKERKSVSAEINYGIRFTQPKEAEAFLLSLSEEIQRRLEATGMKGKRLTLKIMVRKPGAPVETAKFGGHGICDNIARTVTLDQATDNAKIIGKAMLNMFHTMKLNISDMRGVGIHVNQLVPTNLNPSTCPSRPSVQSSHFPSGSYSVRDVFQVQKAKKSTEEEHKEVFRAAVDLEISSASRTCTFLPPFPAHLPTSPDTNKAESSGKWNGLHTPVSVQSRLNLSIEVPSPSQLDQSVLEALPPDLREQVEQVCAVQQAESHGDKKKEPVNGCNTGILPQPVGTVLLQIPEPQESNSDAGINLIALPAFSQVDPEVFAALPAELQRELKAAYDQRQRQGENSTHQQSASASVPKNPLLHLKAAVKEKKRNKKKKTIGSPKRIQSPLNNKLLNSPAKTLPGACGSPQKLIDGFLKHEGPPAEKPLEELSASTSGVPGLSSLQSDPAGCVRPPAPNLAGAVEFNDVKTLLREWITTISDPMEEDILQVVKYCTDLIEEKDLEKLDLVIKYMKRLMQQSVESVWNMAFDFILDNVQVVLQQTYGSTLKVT

[1] = biological target: T3, hRev1 330-833 polymerase core (human, UniProt Q9UBZ9 330-833); test: as above
T3 sequence: T1 sequence with A141Y

[2] = parallel G4 (1:2:1 loops) in K+

Binder | Kd (hRev1 330-833 Y470A; [2]) [nM] | Kd (hRev1 full-length; [2]) [nM] | Kd [1, 2] [nM] | Kd (hRev1 330-833 Y470A) [nM] | Kd (hRev1 full-length) [nM] | Kd [1] [nM]
AGGGTGGGTAGGGTGGGTTATGAGATGAT (structured_DNA) [Myc 14/23 ss G4] | 180 ± 30 | 5 ± 1 | 37 ± 7 |  |  | 
AGCGTGCGTAGCGTGCGTTATGAGATGAT (ssDNA) [Non-G4 Myc control ss] |  |  |  | 740 ± 180 | 110 ± 20 | 910 ± 120
